Results published in patent US20050118615A1 (COMPUGEN, published 2005).

Legend:
[1] = target: T1, recombinant human BMP-6 (R&D Systems) (human, UniProt P22004 382-513, limits assumed); test: pull-down on Talon metal affinity resin with immobilised His-hCHL2, immunoblot with anti-BMP-6 antibody
T1 construct: Bought reagent
T1 sequence (looked up): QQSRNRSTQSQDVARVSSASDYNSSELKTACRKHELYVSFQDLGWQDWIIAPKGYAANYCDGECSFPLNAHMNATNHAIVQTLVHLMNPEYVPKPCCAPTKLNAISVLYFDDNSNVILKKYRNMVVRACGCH
From the text: (§1) Protein binding assays with His-tagged hCHL2 protein Culture media of COS7 cells, transfected with hCHL2 cloned in pcDNA4/His, or empty vector (see above), were collected every 24 hrs, beginning at 48 hrs after transfection for a total of 96 hrs, and concentrated 10-fold by ultrafiltration through a YM Millipore membrane under nitrogen pressure (Millipore, Bedford, Mass.) before binding of secreted His-tagged hCHL2 to BD TALONTM Metal Affinity Resin (Clontech, Palo Alto, Calif.). The resin was added to the concentrated medium, rotated for 30 min at room temperature, and then washed twice with loading buffer (50 mM NaH₂PO₄, pH 8, 300 mM NaCl, 5 mM imidazole) and resuspended in 200 μl of binding buffer (1 mM CaCl₂, 3 mM MgCl₂, 0.2% NP-40, 1 mg/ml BSA in PBS). The His-hCHL2, immobilized on the resin, was incubated with 200 ng of recombinant human BMP-2, -4, -6 or Activin A (all purchased from R&D Systems), while rotating for 1 hr at room temperature, and then washed once with binding buffer and twice with binding buffer supplemented with 0.2% Tween. […]
(§2) COS-7 cells were transfected with a pcDNA4 (Invitrogen, Carlsbad, Calif.) vector expressing His-tagged hCHL2 (coding region corresponding to variant II, SEQ ID NO:6), and the culture media were collected for 72 hrs. […] No interaction was detected with any of the other proteins tested (BMP-2, 4, or 6).

[2] = target: T2, recombinant human BMP-2 (R&D Systems) (human, UniProt P12643 283-396); test: pull-down on Talon metal affinity resin with immobilised His-hCHL2, immunoblot with anti-BMP2/4 antibody
T2 construct: Bought reagent
T2 sequence (P12643 283-396 limits assumed): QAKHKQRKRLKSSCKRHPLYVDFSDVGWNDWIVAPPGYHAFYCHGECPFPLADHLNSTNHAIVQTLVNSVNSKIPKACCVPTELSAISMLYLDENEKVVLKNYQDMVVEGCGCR
From the text: as §1, §2

[3] = target: T3, recombinant human BMP-4 (R&D Systems) (human, UniProt P12644 293-408); test: as above
T3 construct: Bought reagent
T3 sequence (looked up): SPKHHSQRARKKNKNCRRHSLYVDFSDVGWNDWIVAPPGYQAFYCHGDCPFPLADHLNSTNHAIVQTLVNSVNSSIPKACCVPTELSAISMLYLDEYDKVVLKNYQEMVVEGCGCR
From the text: as §1, §2

Measured: binding result

B1: His-tagged hCHL2 (variant II), secreted from COS-7 cells transfected with pcDNA4/myc-His-hCHL2 (other, not shown: small tags and cut ends)
chain: RARPDMFCLFHGKRYSPGESWHPYLEPQGLMYCLRCTCSEGAHVSCYRLHCPPVHCPQPVTEPQQCCPKCVEPHTPSGLRAPPKSCQHNGTMYQHGEIFSAHELFPSRLPNQCVLCSCTEGQIYCGLTTCPEPGCPAPLPLPDSCCQACKDEASEQSDEEDRVQSLHGVRHPQDPCSSDAGRKRGPGTPAPTGLSAPLSFIPRHFIPKGAGSTTVKIVLKEKHKKACVHGGKTYSHGEVWHPAFRAFGPLPCILCTCEDGRQDCQRVTCPTEYPCRHPEKVAGKCCKICPEDKADPGHSEISSTRCPKAPGRVLVHTSVSPSPDNLRRFALEHEASDLVEIYLWKLVKDEETEAQRGEVPGPRPHSQNLPLDSDQESQEARLPERGTALPTARWPPRRSLERLPSPDPGAEGHGQSRQSDQDITKT
notes: also called His-tagged hCHL2 protein
no binding (tested: 200 ng): all assays above
